According to patent US20230031280A1, “GLP-2 FUSION POLYPEPTIDES AND USES FOR TREATING AND PREVENTING GASTROINTESTINAL CONDITIONS” (SHIRE-NPS PHARMACEUTICALS, INC., priority 2017, published 2023):

Experiments:
[1] = target: T1, hFcRn (extracellular domain of the FcRN) (Homo sapiens, UniProt P55899); assay: FcRn binding by surface plasmon resonance (Biacore)
T1 construct: made in house
From the text: Binding to the Fc neonatal receptor (FcRN) allows for recycling of the molecules and leads to an extended in vivo serum half-life of the Fc fusion proteins. Recycling occurs as the molecules are passively taken into the cells and the pH of the endosomes is lower. That leads to binding of the Fc portion of the molecule to the FcRN. When the FcRN recycles back to the surface of the cell, the pH is then neutral and the protein is released back into the serum.
Binding to the extracellular domain of the FcRN was measured by surface plasmon resonance (SPR) using a Biacore system. Direct immobilization with FcRn was achieved via amine coupling of a CM5 chip with FcRn under the following conditions: • i) hFcRn (expressed and purified in house) is diluted in Acetate buffer pH 5.0 to 5 μg/mL. • ii) Immobilize 5 μg/mL of FcRn with target of 500 RU on CM5 chip in PBS pH 7.0 • iii) Final response 454 RU • iv) Running buffer: PBS-P+, pHed to 5.5
The kinetic binding study was done using the following protocol. Samples were diluted in PBS-P+ to 50, 25, 12.5, 6.25, 3.125, 1.56, 0.78, 0.39, 0 nM. The parameters were set as follows: • i) Association and Dissociation 300 s at Flow rate 30 μL/min • ii) Regeneration with 25 mM Tris, 150 mM NaCl pH 8.0 40 s at 60 μL/min
A measurement of the binding of the GLP-2 peptibodies to the Fc neonatal receptor (FcRN) was undertaken at pH 5.5 and pH 7.4.

[2] = NanoDSF melting temperature / thermal stability; assay type: physicochemical
Description: Each of the GLP-2 peptibodies was tested by determining melting temperature with nanodifferential scanning fluorimetry (NanoDSF). NanoDSF is a measurement of protein stability over a range of temperatures, with a temperature ramp employed. The stability of tryptophan is measured by fluorescence, as reflected in a ratio of fluorescence at 350 nm to fluorescence at 330 nm. From the assay, one or more melting temperatures are determined. Because a protein in a certain state is understood to have a melting temperature, the number of melting temperatures observed reflects the number of different states.
(§1) Stability analysis was then performed using SEC-MALS and NanoDSF. For SEC-MALS, a Sepax Zenix C-150 column was used. The mobile phase buffer was 1× PBS with a final concentration of 400 mM NaCl. The flow rate was 0.8 mL per minute. 20 micrograms of total protein was injected. For NanoDSF, 10 microliters of sample was used, without normalization of the samples.
as §1

[3] = Rat pharmacokinetics, intravenous dosing; assay type: in vivo, Sprague-Dawley rats; conditions: single dose 1 mg/ml
Description: In the rat, four pharmacokinetic parameters were measured for Gattex® (a GLP-2 peptide having the A2G mutation): CL, Vc, Vt and Q. The same pharmacokinetic parameters were also measured for GLP-2 peptibodies A, B, E, J, K, L, M, O and P. The data is shown in Table 4. Male Sprague-Dawley rats (3 animals per group) were injected intravenously either via a jugular vein or tail vein catheter. A singles dose of test article was injected at a dose level of 1 mg/ml. The test articles were formulated in PBS pH 7.4 at a concentration of Blood samples were taken 0.083, 0.167, 0.33, 0.5, 1, 2, 6, 24, 48, 72, 120, 168, 240, and 336 hours post dose. Blood samples were collected into heparinized tubes and centrifuged for 5 minutes at 2000 xg within 10 minutes of collection. 100 μL of plasma were transferred to a 1.5 ml Eppendorf tube containing 2 μL of 50 mM PMSF. After mixing, the plasma samples were frozen at −80° C. until analysis.

[4] = Rat pharmacokinetic comparability with/without C-terminal lysine; assay type: in vivo, Sprague-Dawley rats; conditions: in vivo, 1 mg/kg
Description: 1 mg/kg of total GLP-2 peptibody K protein was administered subcutaneously to one group of six male Sprague-Dawley rats. 1 mg/kg of total GLP-2 peptibody K274 protein was administered intravenously to another group of six male Sprague-Dawley rats. 1 mg/kg of total GLP-2 peptibody B protein was administered subcutaneously to a third group of five male Sprague-Dawley rats. 1 mg/kg of total GLP-2 peptibody B264 protein was administered subcutaneously to a fourth group of five male Sprague-Dawley rats.
For all of the above groups, plasma samples were taken pre-dose, and at the following time points post-dose: 5 minutes (day 1), 10 minutes (day 1), 20 minutes (day 1), 30 minutes (day 1), 1 hour (day 1), 2 hours (day 1), 6 hours (day 1), 24 hours (day 2), 48 hours (day 3), 72 hours (day 4), 120 hours (day 6), 168 hours (day 8), 240 hours (day 11), and 336 hours (day 15).
Tables showing the pharmacokinetic data comparing intravenously administered GLP-2 peptibody K and GLP-2 peptibody K274 are in FIG. 10B. Tables showing the pharmacokinetic data comparing subcutaneously administered GLP-2 peptibody K and GL-2 peptibody K274 are in FIG. 10C.

[5] = Projection of intravenous and subcutaneous PK parameters for humans; set-up: species or system human
Description: While a dose of 30 μg/kg once weekly (QW) is projected from the cynomolgus monkey PK data, the dose should be ten times higher (300 μg/kg) to adjust for the difference in in vivo potency.

Kd ([1]; pH 5.5): 1.95 nM
FcRN KD at pH 7.4 ([1]; pH 7.4): No binding in range tested.
Substance: GLP-2 peptibody K: GLP-2[A2G]-GGGGSGGGGSGGGGS linker-IgG1 Fc (LALA) with C-terminal lysine; SEQ ID NO: 10
NanoDSF melting temperature 1 ([2]; first transition): 1 = 67.5 °C
NanoDSF melting temperature 2 ([2]; second transition): 2 = 79.7 °C
CL [3]: 53.7 mL/day/kg
Q [3]: 61 mL/day/kg
Vc [3]: 42.2 mL/kg
Vt [3]: 46.4 mL/kg
pharmacokinetic comparability of K and K274 [4]: identical from a pharmacokinetic point of view
Vc [5]: 38.5 mL/kg
Vt [5]: 36.1 mL/kg
ka [5]: 1.40 day⁻¹
CL (value in parentheses) ([5]; exponent on CL 0.85, monkey 3.5 kg, human 70 kg): 15.4 mL/day/kg
CL ([5]; first value of cell): 24.2 mL/day/kg
F ([5]; first value of cell): 86%
Q ([5]; first value of cell): 56.4 mL/day/kg
F (value in parentheses) ([5]; value in parentheses): 60%
Q (value in parentheses) ([5]; value in parentheses): 36.0 mL/day/kg
